In series [1] the target is Tth xynB3 β-xylosidase from Thermotoga thermarum DSM 5069 (Thermotoga thermarum DSM 5069). In words: SEC; Superdex 200 10/30 GL column on an ÄKTA FPLC system; MW calculated from the calibration curve of the gel filtration column; oligomerization state of the purified native protein.
Substrate in series [2]: O=[N+]([O-])c1ccc(O[C@@H]2OC[C@@H](O)[C@H](O)[C@H]2O)cc1
Briefly: purified protein. Type of series: biochemical, Pseudothermotoga thermarum. The settings on record: 50 mM imidazole-potassium buffer pH 6.0, 85°C (standard conditions; text says optimal conditions).

Substrate in series [3]: O=[N+]([O-])c1ccc(O[C@@H]2O[C@@H](CO)[C@H](O)[C@H]2O)cc1
In words: purified protein. The settings on record: 50 mM imidazole-potassium buffer pH 6.0, 85°C (standard conditions; text says optimal conditions). Type of series: biochemical, Pseudothermotoga thermarum.

The term stoichiometry N denotes the number of molecules, sites or subunits per partner or assembly. As a reminder, the Km is the concentration of substrate that gives half-maximal velocity.

Consider “Tth xynB3 β-xylosidase from Thermotoga thermarum DSM 5069 (enzyme)”, for which the stoichiometry N in series [1] is 5.

B1: Tth xynB3 β-xylosidase (Pseudothermotoga thermarum DSM 5069) (protein)
chain: MDLYKNPNVPAKVRAKDLLSKMTLEEKIAQLGSVWSYELLTEDGKFSVEKAKEILKHGIGQITRPGGATNFEPPEVAKLVNEIQKFLVENTRLGIPAIMHEECLAGYMGLGATIFPQPIGMASTWDPELVEKITSAIREDLRKLGITQGLAPVLDVARDPRWGRTEETFGESPYLVAKMGVAYVKGLQGSDITKGVVATGKHFAGYSASEGGKNWAPTNIPPRELREVFLYPFEAAVKEAGLLSIMNSYSEIDGIPCASNRELLTDILRRTWGFEGIVVSDYFAVDMLAAYHRMAKNKAEAAKYALEAGIDIELPKTDCYLHLKSLVENGIISEKLLDEAVLRVLTLKFLLGLFENPYAEGGSLNDHNDIALEASRKSIVLLKNNGILPLKNDVKIALVGPTANDVRNLLGDYSYLVHIKTLLENVNATTFNAPKFNLKKVEELVEAHLKKIPSILAEFAKRAKEIYYAKGCDITDPSREGFAEALEAAKKADVVVAVVGDRSGLTIECTSGESRDMANLKLPGVQEEFILELTKVGKPIVVVLVTGRPYSLKAFVNKVNAIVQLWLPGETGAQALAEVIFGQVNPSGKLPISFPASAGQIPVFHYVKPSGGRSCWHGNYVDEDVKPLFPFGHGLSYTTFSYTNLRIEQQEIPIAGSVKLKVDVQNTGEIYGEEVVQLYISREHASVTRPVKELKGFARVKLQPKETKTVVFEIHTDVLAYYDRDMKLVVEPGEYKVLIGSSAEDIRCQGNFKVVGEKRLVQDNRVFFTNTKIE
notes: full length, 774 residues (2,322 bp), pET-20b NdeI/XhoI in E. coli BL21 (DE3), Ni-NTA purified after heat treatment; theoretical monomer 85,129 Da; 5-mer in solution (422,474 Da); primers […]; (N-terminal MDLYKNPNV)
On to B1, for which the Km was found to be 270 µM in series [2] and 210 µM in series [3].

(Values after publication PMC3621209, “Biochemical properties of a novel thermostable and highly xylose-tolerant β-xylosidase/α-arabinosidase from Thermotoga thermarum” (Biotechnology for Biofuels, 2013).)
